The text below walks through data of publication PMC4439582 (Immunity, 2015).

In assay [1] the target is mIL-2:S4B6 immunocomplex (mouse | not stated) (UniProt P04351). The assay is described as follows: SPR. On the technique in general: SPR reads the build-up and loss of mass on a sensor chip optically.
The target in assay [2] is IL-2Rβ/IL-2Rγ (Homo sapiens) (UniProt P14784). The conditions noted are these: cited from earlier work.
Assay [3] deals with mouse interleukin-2 (mouse) (UniProt P04351).
The target in assay [4] is mouse interleukin-2 displayed on the surface of yeast (mouse, UniProt P04351). The assay is described as follows: flow cytometry on cells.

“mouse interleukin-2 receptor-β (from UniProt P16297 27-240)”: in assay [1], the fold enhancement of binding over free mIL-2 worked out at 6 fold.

As usually defined, the Kd is the constant that tells how readily two partners part at equilibrium. With IL-2 (from UniProt P60568), the Kd in assay [2] was 1 nM.

B1: S4B6 antibody (antibody, V domains shown)
VH: EVQLQESGAELVRPGTSVKLSCKVSGDTITAYYLHFVRQRPGQGLEWIGRIDPEDDSTKYAENFKNKATFTADASSNTAYLRLSSLTSEDTATYFCTTVTFYYSRELRWFAYWGQGTLVTVSS
VL: DIQVTQSPASLSASLEEIVTITCQASQDIGNYLSWYQQKLGKSPQLLIHSATSLADGVPSRFSGSRSGTQYSLKINRLQVEDTGIYYCLQHYSTPYTFGAGTKLELK
Turning to B1, the fold higher apparent affinity than the monovalent form in assay [3] was more than 25 fold. Besides, in assay [4], the binding result is “binds”.

B2: JES6-1 antibody (antibody, V domains shown)
VH: EIQLQQSGPELRRPGSSVKLSCKASGYNITDYLIHWVRHRPEHGLEWIGWIDPEDGETRYAQKFQSKATLTADTSSNAAYMQLSSLTPEDTATYFCARSLDSTYIYPFAYWGQGTLVTVSS
VL: DIVMTQSPFSLAVSEGEMVTINCKSSQSLLSSGNQKNYLAWYQQKPGQSPKLLIYYASTGQSGVPDRFIGSGSGTDFTLTISDVQAEDLADYYCLQHYISPPTFGAGTKLELK
In the case of B2, the binding result in assay [4] is “binds”.
